Data from publication PMC2857461 (The EMBO Journal, 2010).

Key:
AUC = target: the molecule itself; assay: AUC
cross-linking = target: the molecule itself; assay: cross-linking

B1: His‐CT2 (domain or fragment, human, UniProt Q13563 680-968, looked up)
chain: INDTYSEVKSDLAQQKAEMELSDLIRKGYHKALVKLKLKKNTVDDISESLRQGGGKLNFDELRQDLKGKGHTDAEIEAIFTKYDQDGDQELTEHEHQQMRDDLEKEREDLDLDHSSLPRPMSSRSFPRSLDDSEEDDDEDSGHSSRRRGSISSGVSYEEFQVLVRRVDRMEHSIGSIVSKIDAVIVKLEIMERAKLKRREVLGRLLDGVAEDERLGRDSEIHREQMERLVREELERWESDDAASQISHGLGTPVGLNGQPRPRSSRPSSSQSTEGMEGAGGNGSSNVHV
stoichiometry N (AUC): 2 | stoichiometry N (cross-linking): 4
